Assay results published in US20230132049A1 (Genmab, published 2023).
Where a chain is given by its changes, count along the chain named.

T1: human CD30 (human, UniProt P28908 19-595)
T1 sequence: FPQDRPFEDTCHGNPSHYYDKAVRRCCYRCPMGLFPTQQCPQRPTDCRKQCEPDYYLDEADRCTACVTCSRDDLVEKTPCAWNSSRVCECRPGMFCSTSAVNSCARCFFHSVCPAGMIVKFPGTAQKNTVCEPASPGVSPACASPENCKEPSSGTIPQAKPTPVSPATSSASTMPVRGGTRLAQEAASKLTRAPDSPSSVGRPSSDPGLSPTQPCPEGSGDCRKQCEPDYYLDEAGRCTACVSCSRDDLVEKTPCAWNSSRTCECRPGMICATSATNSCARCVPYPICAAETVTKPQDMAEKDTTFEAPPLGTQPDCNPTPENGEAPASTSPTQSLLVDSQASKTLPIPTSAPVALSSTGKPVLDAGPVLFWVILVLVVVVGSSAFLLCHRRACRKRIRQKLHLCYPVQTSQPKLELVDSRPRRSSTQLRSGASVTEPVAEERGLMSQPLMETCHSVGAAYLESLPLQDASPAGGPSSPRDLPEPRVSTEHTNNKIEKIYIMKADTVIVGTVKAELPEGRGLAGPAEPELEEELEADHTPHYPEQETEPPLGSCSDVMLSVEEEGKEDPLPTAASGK

T2: rhesus monkey (Macaca mulatta) CD30 (rhesus monkey, UniProt P28908 19-595 (human entry))
T2 construct: Full-length construct expressed in Expi293F cells; also called mmCD30
T2 chain: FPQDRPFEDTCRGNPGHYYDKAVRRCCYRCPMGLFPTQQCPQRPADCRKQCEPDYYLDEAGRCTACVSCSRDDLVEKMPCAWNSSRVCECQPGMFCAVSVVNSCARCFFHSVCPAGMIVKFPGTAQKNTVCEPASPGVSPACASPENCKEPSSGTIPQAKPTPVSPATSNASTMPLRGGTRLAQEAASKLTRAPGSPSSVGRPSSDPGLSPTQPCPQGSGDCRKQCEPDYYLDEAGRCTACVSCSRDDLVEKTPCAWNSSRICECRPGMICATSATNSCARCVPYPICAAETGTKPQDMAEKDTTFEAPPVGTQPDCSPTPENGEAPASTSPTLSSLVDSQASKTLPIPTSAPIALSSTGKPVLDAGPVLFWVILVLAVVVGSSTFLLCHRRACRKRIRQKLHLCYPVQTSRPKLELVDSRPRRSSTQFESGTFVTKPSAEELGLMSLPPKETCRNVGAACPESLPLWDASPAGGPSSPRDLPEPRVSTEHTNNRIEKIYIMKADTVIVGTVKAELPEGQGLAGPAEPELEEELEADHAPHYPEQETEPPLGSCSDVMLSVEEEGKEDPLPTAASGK

B1: bsG1-huCD3-FEAL×CD30-MDX060-FEAR (bispecific antibody, human IgG1, kappa, lambda)
heavy 1: not shown
light 1: not shown
heavy 2: QVQLQQWGAGLLKPSETLSLTCAVYGGSFSAYYWSWIRQPPGKGLEWIGDINHGGGTNYNPSLKSRVTISVDTSKNQFSLKLNSVTAADTAVYYCASLTAYWGQGSLVTVSSASTKGPSVFPLAPSSKSTSGGTAALGCLVKDYFPEPVTVSWNSGALTSGVHTFPAVLQSSGLYSLSSVVTVPSSSLGTQTYICNVNHKPSNTKVDKRVEPKSCDKTHTCPPCPAPEFEGGPSVFLFPPKPKDTLMISRTPEVTCVVVAVSHEDPEVKFNWYVDGVEVHNAKTKPREEQYNSTYRVVSVLTVLHQDWLNGKEYKCKVSNKALPAPIEKTISKAKGQPREPQVYTLPPSREEMTKNQVSLTCLVKGFYPSDIAVEWESNGQPENNYKTTPPVLDSDGSFFLYSRLTVDKSRWQQGNVFSCSVMHEALHNHYTQKSLSLSPG
light 2: DIQMTQSPTSLSASVGDRVTITCRASQGISSWLTWYQQKPEKAPKSLIYAASSLQSGVPSRFSGSGSGTDFTLTISSLQPEDFATYYCQQYDSYPITFGQGTRLEIKRTVAAPSVFIFPPSDEQLKSGTASVVCLLNNFYPREAKVQWKVDNALQSGNSQESVTEQDSKDSTYSLSSTLTLSKADYEKHKVYACEVTHQGLSSPVTKSFNRGEC
notes: also called bsG1-huCD3xCD30-MDX060
B2: bsG1-huCD3-FEAL×CD30-hAC10-FEAR (bispecific antibody, human IgG1, kappa, lambda)
heavy 1: not shown
light 1: not shown
heavy 2: QVQLVQSGAEVKKPGASVKVSCKASGYTFTDYYITWVRQAPGQGLEWMGWIYPGSGNTKYNEKFKGRVTMTRDTSISTAYMELSRLRSDDTAVYYCANYGNYWFAYWGQGTLVTVSSASTKGPSVFPLAPSSKSTSGGTAALGCLVKDYFPEPVTVSWNSGALTSGVHTFPAVLQSSGLYSLSSVVTVPSSSLGTQTYICNVNHKPSNTKVDKRVEPKSCDKTHTCPPCPAPEFEGGPSVFLFPPKPKDTLMISRTPEVTCVVVAVSHEDPEVKFNWYVDGVEVHNAKTKPREEQYNSTYRVVSVLTVLHQDWLNGKEYKCKVSNKALPAPIEKTISKAKGQPREPQVYTLPPSREEMTKNQVSLTCLVKGFYPSDIAVEWESNGQPENNYKTTPPVLDSDGSFFLYSRLTVDKSRWQQGNVFSCSVMHEALHNHYTQKSLSLSPG
light 2: not shown
notes: Bispecific IgG1 by Fab-arm exchange of the two parental antibodies
B3: bsG1-huCD3-FEAL×CD30-HRS-3-FEAR (bispecific antibody, human IgG1, kappa, lambda)
heavy 1: not shown
light 1: not shown
heavy 2: QVQLQQSGAELARPGASVKMSCKASGYTFTTYTIHWVRQRPGHDLEWIGYINPSSGYSDYNQNFKGKTTLTADKSSNTAYMQLNSLTSEDSAVYYCARRADYGNYEYTWFAYWGQGTTVTVSSASTKGPSVFPLAPSSKSTSGGTAALGCLVKDYFPEPVTVSWNSGALTSGVHTFPAVLQSSGLYSLSSVVTVPSSSLGTQTYICNVNHKPSNTKVDKRVEPKSCDKTHTCPPCPAPEFEGGPSVFLFPPKPKDTLMISRTPEVTCVVVAVSHEDPEVKFNWYVDGVEVHNAKTKPREEQYNSTYRVVSVLTVLHQDWLNGKEYKCKVSNKALPAPIEKTISKAKGQPREPQVYTLPPSREEMTKNQVSLTCLVKGFYPSDIAVEWESNGQPENNYKTTPPVLDSDGSFFLYSRLTVDKSRWQQGNVFSCSVMHEALHNHYTQKSLSLSPG
light 2: DIVMTQSPKFMSTSVGDRVTVTCKASQNVGTNVAWFQQKPGQSPKVLIYSASYRYSGVPDRFTGSGSGTDFTLTISNVQSEDLAEYFCQQYHTYPLTFGGGTKLEINRTVAAPSVFIFPPSDEQLKSGTASVVCLLNNFYPREAKVQWKVDNALQSGNSQESVTEQDSKDSTYSLSSTLTLSKADYEKHKVYACEVTHQGLSSPVTKSFNRGEC
B4: bsG1-huCD3-FEAL×CD30-T105-FEAR (bispecific antibody, human IgG1, kappa, lambda)
heavy 1: not shown
light 1: not shown
heavy 2: not shown
light 2: B3 light 2 with P8Q, T20S, G30N, F36Y, K45E, V46A, H92N, T93S, G100S, N107K
notes: Bispecific IgG1 by Fab-arm exchange of the two parental antibodies; also called bsIgG1-huCD3-FEAL×CD30-T105-FEAR
B5: bsG1-huCD3-FEAL×CD30-T408-FEAR (bispecific antibody, human IgG1, kappa, lambda)
heavy 1: not shown
light 1: not shown
heavy 2: QVQLQQPGAELVRPGASVKLSCKASGYTFTSYWINWVKQRPGQGLEWIGNIYPSDSYSNYNQKFKDKATLTVDKSSSTAYMQLSSPTSEDSAVYYCTLGSYWGQGTLVTVSAASTKGPSVFPLAPSSKSTSGGTAALGCLVKDYFPEPVTVSWNSGALTSGVHTFPAVLQSSGLYSLSSVVTVPSSSLGTQTYICNVNHKPSNTKVDKRVEPKSCDKTHTCPPCPAPEFEGGPSVFLFPPKPKDTLMISRTPEVTCVVVAVSHEDPEVKFNWYVDGVEVHNAKTKPREEQYNSTYRVVSVLTVLHQDWLNGKEYKCKVSNKALPAPIEKTISKAKGQPREPQVYTLPPSREEMTKNQVSLTCLVKGFYPSDIAVEWESNGQPENNYKTTPPVLDSDGSFFLYSRLTVDKSRWQQGNVFSCSVMHEALHNHYTQKSLSLSPG
light 2: DVVMTQTPLTLSVTIGQPASISCKSSQSLSDSDGKTYLNWLLQRPGQSPKRLIYLVSKLDSGVPDRFTGSGSGTDFTLKISRVEAEDLGVYYCWQGAHFPRTFGGGTKLEIKRTVAAPSVFIFPPSDEQLKSGTASVVCLLNNFYPREAKVQWKVDNALQSGNSQESVTEQDSKDSTYSLSSTLTLSKADYEKHKVYACEVTHQGLSSPVTKSFNRGEC
notes: Bispecific IgG1 by Fab-arm exchange of the two parental antibodies; also called bsIgG1-huCD3-FEAL×CD30-T408-FEAR; BisIgG1-huCD3-FEAL×CD30-T408-FEAR
B6: bsG1-huCD3-FEAL×CD30-T215-FEAR (bispecific antibody, human IgG1, kappa, lambda)
heavy 1: not shown
light 1: not shown
heavy 2: not shown
light 2: DIVMTQSQKFMSTSVGDRVSVTCKASQNVFTNVAWYQQKLGQSPKPLIYSASYRYSGVPDRFTGSGSGTDFTLTISDVQSEDLAEYFCQQYNSYPVTFGAGTKLELKRTVAAPSVFIFPPSDEQLKSGTASVVCLLNNFYPREAKVQWKVDNALQSGNSQESVTEQDSKDSTYSLSSTLTLSKADYEKHKVYACEVTHQGLSSPVTKSFNRGEC
notes: Bispecific IgG1 by Fab-arm exchange of the two parental antibodies; also called bsIgG1-huCD3-FEAL×CD30-T215-FEAR
B7: IgG1-CD30-T408-FEAR (antibody, V domains shown)
VH: QVQLQQPGAELVRPGASVKLSCKASGYTFTSYWINWVKQRPGQGLEWIGNIYPSDSYSNYNQKFKDKATLTVDKSSSTAYMQLSSPTSEDSAVYYCTLGSYWGQGTLVTVSA
VL: not shown
notes: Monospecific, bivalent parental antibody
B8: IgG1-CD30-T215-FEAR (antibody, V domains shown)
VH: QVTLKESGPGILQPSQTLSLTCSFSGFSLSVSGMGVSWIRQPSGKGLEWLAHIHWDDDRRSNPSLRSRLTISKDTSNNQVFLKITSVDTADTATYYCARRPDLYGNYFFFDFWGQGTTLTVSS
VL: DIVMTQSQKFMSTSVGDRVSVTCKASQNVFTNVAWYQQKLGQSPKPLIYSASYRYSGVPDRFTGSGSGTDFTLTISDVQSEDLAEYFCQQYNSYPVTFGAGTKLELKR
notes: as for B7

Target: T1, human CD30
Assay: cell-based or functional assay

Row | Binder | cytotoxicity IC50 (µg/mL) average, Karpas-299 cells [µg/mL] | cytotoxicity maximum lysis (%) average, Karpas-299 cells [%]
1 | B1 | 0.033 | 53.7
2 | B2 | 0.032 | 37.8
3 | B3 | 0.068 | 47.5
4 | B4 | 0.042 | 52.6
5 | B5 | 0.226 | 41.3
6 | B6 | 0.077 | 42.8

Target: T1, human CD30
Assay: flow cytometry on SU-DHL-1 cells
Procedure: Binding of CD3×CD30 bispecific antibodies to two CD30-expressing human tumor cell lines SU-DHL-1 (ALCL; ATCC, cat. no. ACC 356) and HDLM-2 (HL; ATCC, cat. no. CRL-2965) was analyzed by flow cytometry.
Cells (3×10⁴ cells/well) were incubated in polystyrene 96-well round-bottom plates (Greiner bio-one, cat. no. 650180) with serial dilutions of antibodies (range 0.0046 to 10 μg/mL in 3-fold dilution steps) in 50 μL staining buffer at 4° C. for 30 min. After washing twice in staining buffer, cells were incubated with 50 μL secondary antibody at 4° C. for 30 min. […] Next, cells were washed twice in staining buffer, resuspended in 100 μL staining buffer supplemented with TO-PRO-3 iodide (Thermo Fisher Scientific; cat. no. T3605; 1:8000 dilution) and analyzed on a FACSCelesta flow cytometer (BD Biosciences, USA). Live cells were gated based on FSC/SSC and absence of TOPRO-3 staining. Binding curves were analyzed by non-linear regression of log-transformed data (sigmoidal dose-response with variable slope, four parameters) using GraphPad Prism V7.02 software (GraphPad Software, San Diego, Calif., USA).

Row | Binder | EC50 (read off the curve) [µg/mL]
7 | B7 | ~0.7

Target: T1, human CD30
Assay: flow cytometry on Expi293F cells transfected with human CD30
Procedure: (§1) Cells (3×10⁴ cells/well) were incubated in polystyrene 96-well round-bottom plates (Thermo Scientific, cat. no. 163320) with serial dilutions of antibodies (ranging from 0.0002 to 50 μg/mL in 4-fold dilution steps) in 50 μL staining buffer at 4° C. for 30 min. Experiments were performed in technical duplicate. After washing twice in staining buffer, cells were incubated in 50 μL secondary antibody at 4° C. for 30 min. […] Cells were washed twice in staining buffer, resuspended in 30 μL staining buffer containing 0.4% EDTA and the ToPro-3 viability marker (Invitrogen, cat. no. T3605) diluted 1:10,000. Cells were analyzed on an iQue Screener (Intellicyt Corporation, USA). Binding curves were analyzed using non-linear regression (sigmoidal dose-response with variable slope) using GraphPad Prism V9.0.0 software (GraphPad Software, San Diego, Calif., USA).

Row | Binder | EC50 (read off the curve) [µg/mL]
8 | B1 | ~0.1
9 | B2 | ~0.06
10 | B4 | ~0.2

Target: T2, rhesus monkey (Macaca mulatta) CD30
Assay: flow cytometry on Expi293F cells transfected with rhesus monkey CD30

Row | Binder | binding result
11 | B2 | binds

Target: T2, rhesus monkey (Macaca mulatta) CD30
Assay: as above
Remark: another data set of the same source
Procedure: as §1

Row | Binder | binding result
12 | B5 | binds
13 | B6 | binds
14 | B8 | binds
